Data reported in the Immune Epitope Database (IEDB).

What follows are sequences tested against HLA-A*02:01 (assay: IEDB peptide-MHC binding, cellular MHC/competitive/fluorescence; ≥ and ≤ were set here for values at or beyond the usual limits of such assays). Settings: source organism: Vaccinia virus WR.

Row | Sequence | IC50 [µM]
1 | NVEEDLARNL | ≥ 70
2 | LVKWPLLNI | 9.21
3 | TAVEHIPTM | 15.9
4 | SATESDAIRT | ≥ 70
5 | EQTSVFSATV | 28.6
6 | STNGKIVMT | ≥ 70
7 | DMPSLSNGLI | 43
8 | TVMNNLSELT | 11.9
9 | IQESFIRFT | 36.2
10 | STFSIGGVI | 23.5
11 | RIVVYNPST | 6.05
12 | ETSFNDKQKV | ≥ 70
13 | YTVMVKINPT | 9.38
14 | KLSKLTDKKT | ≥ 70
15 | AASPMLYQLL | 16
16 | AIKCEGLDV | 13.6
17 | DLSKLSKDVV | ≥ 70
18 | MTPENDEEQT | ≥ 70
19 | MIVLITMLSI | 6.16
20 | FVKRLGPGT | 39.7
21 | TVSTIDGRI | ≥ 70
22 | LTTLSRHIFM | 5.83

Row | Sequence | IC50 [µM]
23 | LLTKSNNGT | 13.9
24 | LTSGEYKQCL | 20.2
25 | ILHRLHEILT | 12.6
26 | STHRKVASST | 51.5
27 | LTAVEHIPT | ≥ 70
28 | DVELFIKAL | ≥ 70
29 | LQTIEIIFT | 9.68
30 | SILRSIEGEL | 5.85
31 | PTASSDSLQT | 16.7
32 | MQRISGSNI | 9.8
33 | WIKTISKRM | 23.6
34 | TMDGDKLSKL | ≥ 70
35 | ELMPIRTDTT | 11.7
36 | EVFNREYNNV | 13.2
37 | SVDCNKELM | 11.2
38 | VATDPDADA | ≥ 70
39 | PVSTNGKIV | ≥ 70
40 | FIVISPMGKL | 20
41 | LVKLSSYHVV | 14.4
42 | VVSRHLTNDA | ≥ 70
43 | VTKTDGIPIT | 27.5
44 | MIKERRQITM | 24.9

Row | Sequence | IC50 [µM]
45 | DINSDNSNI | 24.8
46 | NVILSPPINA | 7.25
47 | HIIIVALTI | 7.72
48 | DLVVLGKVTI | 10.9
49 | VTINNLKMM | 9.06
50 | TLPSIFLIIT | 9.73
51 | ETDRENAII | 67.3
52 | SVFAASKQQM | ≥ 70
53 | NTFPNITLKI | 10.1
54 | PMNVDNLIM | 17.4
55 | ITPDVIINST | ≥ 70
56 | HLRDQSIKI | 7.25
57 | VTKTDGIPI | 8.57
58 | DIGTVKDGRL | ≥ 70
59 | EIFIRYGDA | 30.5
60 | LIKKPYRSI | 59.4
61 | QTPIQSDAGM | 34.3
62 | IVVYNPSTM | 56.2
63 | PTMNNAKLT | 19.8
64 | FIKPPLITLT | ≥ 70
65 | EATYHIIIV | 11
66 | LTGSQYYFSM | 5.06

Row | Sequence | IC50 [µM]
67 | KIKVTAASPM | ≥ 70
68 | AASSTHRKVA | ≥ 70
69 | KQDIVGLDL | 14.2
70 | IVGLDLENL | 14.2
71 | PVSKVKSCL | 14.3
72 | EIEEHMRQT | 39
73 | EAVKDKNWT | 38.7
74 | IATYIDALA | 12.4
75 | PTLDNILGI | 6.67
76 | EVVANVIGL | 12.2
77 | QLKGFYMISL | 9.02
78 | EVFHCMDILT | 14.8
79 | IVWEKKSLVT | 20.7
80 | DTQQHPIVV | 13.9
81 | AASKQQMLM | ≥ 70
82 | VTKVNNYDDT | ≥ 70
83 | NIGIVLSNT | 14.6
84 | VANVVNHVLT | ≥ 70
85 | VISLLSMIT | 5
86 | LVNAIIDSA | 15.6
87 | KLIIDREVV | 6.63
88 | SLKRNAEGI | ≥ 70

Row | Sequence | IC50 [µM]
89 | TASSDSLQT | 54.9
90 | KITFALKKL | 17.8
91 | TACNNTIII | 11.3
92 | YVESKLVDI | 25.3
93 | PTINKSIYII | 6.11
94 | RIVVYNPSTM | ≥ 70
95 | DLEKYFYGEI | ≥ 70
96 | NQCMSANEA | 13.3
97 | STPMTEYII | ≥ 70
98 | DLVVLGKVT | 53.3
99 | SLVSYIKTT | 5.37
100 | GTETKITFA | 60.6
101 | MTENVEEDL | 22.1
102 | LLVATDPDA | 17.4
103 | CIEYVTLNA | 11.1
104 | QQPIKKDCMV | 18.5
105 | KIEPRNILI | 8.32
106 | DAAVAVAAA | 5.2
107 | RTKIPLSKV | ≥ 70
108 | SATVYGDKI | 12.9
109 | DILANRDST | ≥ 70
110 | QQALSSFHTT | 29.1

Row | Sequence | IC50 [µM]
111 | VTKQDELQAA | 14.3
112 | NVTNPFDFM | 7.94
113 | AIMFKDDNII | 43.8
114 | ELIAFSSGT | 5.34
115 | ILKPRIDKTM | 49.3
116 | STMEDRPST | 32.6
117 | VIYPNFSKA | 14.2
118 | LVNLIQAKT | 44.2
119 | STLPNKSDVL | 46.5
120 | QIHLYYNSNI | 48.7
121 | LARNLGLVDI | ≥ 70
122 | VTLQKVLHVT | 35.9
123 | EINATDIII | 17.1
124 | RTNRNELFQL | 31.2
125 | AAITDAAVAV | 5.31
126 | VALTIMGVI | 8.94
127 | MIVLPNKVRI | ≥ 70
128 | DALAKNASEL | 61.8
129 | GIKEDETVST | 41.7
130 | ELPYDENGI | 8.48
131 | DAFSREYSMT | ≥ 70
